A short description of this data set: soluble on expression in E. coli; label from the status in PepcDB or PDB records.
With “MKFLNVLIVVEDIEKSKKFYYDVLGLKVICDFGENVVLEGNISLQEKKLWLEFINKSDSEVKFNGNDAELYFEEDNFDTFVERLSTMKDIDYVHLAIEHRWGQRAIRFYDLDGHIIEVGETMSSVCRRFLDSGLSIDEVAKRMDVTVEYIESVLELEHHHHHH”, the “soluble on expression in E. coli” value was “soluble”.

Consider “MKFLRIEDEVIYSKKRYKLKREIDKLFLDEEYFQIEPQLFEEYDEFTTINNKIPEESMVKVVNGKVMVLRADITTSIIKSLVPRWEDGLKLKLFYNSSIYKNKNTVGIKEIRQIGCEYLGEASVEADREVVKLALKILEKYNNNFILEVGSSKYIHGLLEELNLNKNCENQIKNLLYTKNTHELKVYIEELKIKHEVKELLSNILSLQGNLYNVIEKSNKFYCNNKMKQALEELKQVNNLIEECNFLDKARFDLSMITMLDYYEGIMFRGYYPNSYKEILSGGRYDSLTKEYGKEIPAIGFTLSVDELMKYVYK”, for which the “soluble on expression in E. coli” value is reported as “soluble”.

Take “MKFSESVPLYKQPLSIPAEQLPQPDLNRNLPLSKYFLMMKTPEIGFQKAEVRDVLLRKVVLNEIEKIPAIWNCKNTYNANKLYPEVAVQVYRRTGTLLHTKMVQMVFKTAKDSLRNRLRDAISRKGLNEVDTEAHLLEWEYYPFVRFYREVSEGWEDRMRKTKQLEKREPAGGVGIVGDDENSMDVEEEPYENPDIIWDDVADPESPTTSMSSTLTSTQGTFTDYHPEEPYHNPEPPLIHPTLEYAAMKTASLQRNQQNKHVMEVRHGSETRTVVVMPTEPPRQQLNAPDFAEEMLQVTYQATRIAREQPERVKLLRKALFDTVLAFDQKEYNCVADLYRDLAEKSSR”: the “soluble on expression in E. coli” value is listed as “not soluble”.

As for “MKFSVLMSLYIKENPQFLRECFESLVAQTRQADEIVLVFDGVVTPDLEFVVTEFETKLPLKLVKLPQNRGLGKALNEGLLHCDYDWVFRMDTDDICVPDRFEKQVAFIEQHPESIIFGGQIAEFGKNVNDIVAYRNVPTSAQEIIKFTQKRCPFNHMTVAYQKSAVINCGGYEDLQEDYYLWIKLVAQGLYMANLPDILVYARVGNGMVLEHHHHHH”, the “soluble on expression in E. coli” value is “not soluble”.

On to “MKFTELTVKEFENFVQNPSLESHYFQVKENIATRESDGFQVVLLGVKDDDNRVIAASLFSKIPTMGSYVYYSNRGPVMDYSDLGLVDFYLKELDKYLHQHQCLYVKLDPYWLYQVYDKDINPLTEKNDALVNLFKSHGYDHHGFTTQYDSSSQVRWMGVLDLEGKTPASLRKEFDSQRKRNINKAINYGVKVRFLSKDEFGLFLDLYRETEARTGFASKTDDYFYNFIEHYGDKVLVPLAYIDLNEYIQHLQESLNDKENRRDDMMAKENKTDKQLKKIAELDKQIDHDKKELLQASELRQTDGEILNLASGVYFANAYEVNYFSGGSSEKYNQYMGPYAMHWHMINYCFDNGYDRYNFYGLSGDFTENSEDYGVYRFKRGFNVRIEELIGDFYKPINKVKYWLFNTLDRIRNKLKK”, for which the “soluble on expression in E. coli” value is on record as “not soluble”.

On to “MKFVDEASILVVAGDGGNGCVSFRREKYIPKGGPDGGDGGDGGDVWMEADENLNTLIDYRFEKSFRAERGQNGASRDCTGKRGKDVTIKVPVGTRVIDQGTGETMGDMTKHGQRLLVAKGGWHGLGNTRFKSSVNRTPRQKTNGTPGDKRELLLELMLLADVGMLGMPNAGKSTFIRAVSAAKPKVADYPFTTLVPSLGVVRMDNEKSFVVADIPGLIEGAAEGAGLGIRFLKHLERCRVLLHLIDIDPIDGTDPVENARIIISELEKYSQDLATKPRWLVFNKIDLLDKVEAEEKAKAIAEALGWEDKYYLISAASGLGVKDLCWDVMTFIIENPVVQAEEAKQPEKVEFMWDDYHRQQLEEIAEEDDEDWDDDWDEDDEEGVEFIYKR”, for which the “soluble on expression in E. coli” value is “soluble”.

“MKGEEKMPSFDIVSEVDLQEARNGVDNAVREVESRFDFRGVEATIELNDANKTIKVLSESDFQVNQLLDILRAKLLKRGIEGASLDVPDEFVHSGKTWYVEAKLKQGIESAVQKKIVKLIKDSKLKVQAQIQGEEIRVTGKSRDDLQSVMALVRGGDLGQPFQFKNFRD”: the “soluble on expression in E. coli” value is given as “not soluble”.

On to “MKGGIVHSDGSYPKDKFEKINGTWYYFDSSGYMLADRWRKHTDGNWYWFDNSGEMATGWKKIADKWYYFNEEGAMKTGWVKYKDTWYYLDAKEGAMVSNAFIQSADGTGWYYLKPDGTLADRPEFTVEPDGLITVK”, for which the “soluble on expression in E. coli” value was “soluble”.

For the sequence “MKGKNNMSRIIVVTSGKGGVGKTTSSAAIASGLALRGKKTAVIDFDIGLRNLDLIMGCERRVVYDFVNVINGEATLNQALIKDKRNENLFILPASQTRDKDALTKDGVQRVLNDLKEMGFDFIICDSPAGIEQGALMALYYADEAIVTTNPEVSSVRDSDRILGILDSKSMRAEQGQAPIKQHLLLTRYNPARVTQGEMLSVQDVEEILHVPLLGVIPESQAVLNASNKGVPVIFDDQSDAGQAYQDTVARLLGEQVEFRFLTEAKKGIFKRLFGG”, the “soluble on expression in E. coli” value is “not soluble”.

On to “MKGRVVIADDEPITRMDIVEMLLEEGYDIVGEASDGFDAIELCKKHKPDLVLMDVKMPLLNGLKAAEVINQDELAACVVLVTAYSGREFVEEAKKAGAMGYVVKPINEKNLLPTLEVAVSKSKEFNEMKSQVKKAQVQLEDRKQIERAKGILMKKEMLSEEEAYNQIRKLSMSKRCSMGEIAKIITMNQ”, for which the “soluble on expression in E. coli” value was “not soluble”.

Turning to “MKHHHHHHHHGGLVPRGSHGMTKKIVAIWAQDEEGVIGKDNRLPWYLPAELQHFKETTLNHAILMGRVTFDGMGRRLLPKRETLILTRNPEEKIDGVATFHDVQSVLDWYSAQEKNLYIVGGKQIFQAFEPYLDEVIVTHIHARVEGDTYFPAEFDLSLFETVSSKFYTKDEKNPYDFTIQYRKRKEVLE”, the “soluble on expression in E. coli” value is on record as “soluble”.

As to “MKHSVHFGAGNIGRGFIGEILFKNGFHIDFVDVNNQIIHALNEKGKYEIEIAQKGQSRIEVTNVAGINSKEHPEQVIEAIQKTDIITTAIGPNILPFIAELLAKGIEARRVAGNTQALDVMACENMIGGSQFLYQEVKKYLSPEGLTFADNYIGFPNAAVDRIVPAQSHEDSLFVVVEPFNEWVVETKRLKNPDLRLKDVHYEED”, the “soluble on expression in E. coli” value was “not soluble”.

For “MKIAAIYTQSVGPLPDGEIRFENDWSGEIESNVLITGPNGCGKSTLLRAISLLWRAFGHWLGTGTRLNIKDESYTWFYRWDASCAMILDSFSPKSEDQIGLFLGSEAFLVQLKEKYPQVYWLGETVSRTKGTTPETTVFTSSEHFFLPYKNWWSHWSSQYQRLVLKGPSVDMPNLVYLDAEARRWVRPQKDIGSLSPDDSTQAWLATYEVNDNWKGQLESSLFNMKATMPGEYPEMIATLNQFFSGKRIEAEIHPGQRQRVLLDSGNDHSLDALSSGEHQVLIMLFTVQRWLQPGGVVLIDEPDLHLHPSLISPLLASIENIVARKNGQLVMTSHATDIWQRYDNMGLRIDLTDGKDAENGQR”, the “soluble on expression in E. coli” value is given as “not soluble”.

“MKIAVVGAGLTGLKTAKELAEHAKVVVFEPDDVGGLVATFREFSIEKFYHHCFRDDAFLLEEIKRCGLKSKLVWKIAKTGFAANGKIYPLNTPFEILRYPLLTFGEKIRLARFTLKSRKLNYEDFDDVGVSEGIREELGEGLLERFFMPLLRSKFGENAEKVSYAWLLGRVAIRSNRKYSGEEIGYIRHGFQQLVDKMAEGLEIRRERARIRKNARWDVNGEDFDAVVYTAPLSELGELAEKLGIPEVRYQSSVCALIGAEETLTENIYWTNIADKMSFGAVIEHTNFMPFEDYGIHLMYLAAYSTPDGWLFNLSDKEIEKLFLSDLRKLGFKTESVRFVRVFKAKYSGPIYEKGYRRKITPYRVAEGFYVAGMTSRPNYPERSMNGSIRAGKEVAEQVKEDLLLEHHHHHH”: the “soluble on expression in E. coli” value is “soluble”.

As to “MKIDYVSDLHINHWIPWNVNQIKWEKRTREIVNRLISNGNGEVLVIAGDFTEWNQQTLWVLDEAAKQYEKVYFTYGNHDLYLLSKSQKRKYSDSLGRLNDLIQKAADMKNVTPLIKTTETYKGKVFAGDVMWYLPKGIEGWDFFKGVSNDSNYIWLNGYNKVDGVRAMWKESMDWYETLENTQVDVFVSHVPPVHNPYSPFEPNTCYMVDVPFINAKHWVCGHDHLQAEFDKDGTSFHMNCIGYPYDYDNYPSVNVIPGEEVDSYKTFELKTFEIMAGDPLEHHHHHH”, the “soluble on expression in E. coli” value was “not soluble”.

Regarding “MKIEFFHDVICSFCFPMSDRMHEIQQEFPEIELIHRSFALGWSANDFETMFGSRAAVKEEVLTHWVHANQNDSKHRFNIEGMRKQRFDFPTSKNVLLAAKAAGYIGNQDTYWLLFDKLQEGLFVRSLNIEEPEVIEKLVKETTIDFALWKEAVASEAVWTAVQEDFALASAYGLQGVPALIINQKYLINGAVPKQQISQTIQKILAEEKQQQPLVSLTPSSEESASCEFKEGTWTCH”, the “soluble on expression in E. coli” value was “not soluble”.

On to “MKIFLDSAITTDIQDRLATEIIDGVTTNPTLIKKSNEDPDVVYKELYDMRVKDISIEVRGDTAQELAANGILYGRKYGEVATIKLPCTVEGIKACKKLSILGHKTNMTLVFSVSQAILCAKAGATYVSPFVGRLDQIGEDGIQLIRDISRVYCVSGVKTQILAASIRSPKQAEDAYLAGADICTLPVKVFDQMFKHTLTDDGLKQFAIDFGINF”, for which the “soluble on expression in E. coli” value is given as “not soluble”.

With “MKIFNNVHCRIRNTISCSNYIFSAVWNFLISVFINKTNFNNSVYCRIFKVSIGLRKSISSTTRTRWVPVVFICSRSTNRWTGARSVNPIRNLIYIKLSILNKVRPIFRLEHHHHHH”, the “soluble on expression in E. coli” value is “not soluble”.

For “MKIGIVGATGYGGTELVRILSHHPHAEECILYSSSGEGNVYSEGYPHLTGLADQQLKPIDMNTIKHEIDIMFLAAPPGVSSELTPKLADAGITVIDLSGDLRIKEPAEYEKWYKRTAAPKAVIQEAVYGLAELNQLQIQQAKLIANPGCFPTAVLLGLAPLAQKKLLDESFVIVDAKTGVSGAGRKASMGTHFSELNDNFKIYKVNEHQHTPEIEQALNEWQPGLGPITFSAHLVPMTRGIMATMYTRLTCDLTADDLHDLYSEFYQDSYFVRVRPKGQYPQTKEVYGSNFCDIAVTLDERTNRVTIVSVIDNLMKGAAGQAVQNFNLMNGWNEETGLTIITPIYP”, the “soluble on expression in E. coli” value was “not soluble”.

Turning to “MKIGVFDSGVGGFSVLKSLLKARLFDEIIYYGDSARVPYGTKDPTTIKQFGLEALDFFKPHEIELLIVACNTASALALEEMQKYSKIPIVGVIEPSILAIKRQVEDKNAPILVLGTKATIQSNAYDNALKQQGYLNISHLATSLFVPLIEESILEGELLETCMHYYFTPLEILPEVIILGCTHFPLIAQKIEGYFMGHFALPTPPLLIHSGDAIVEYLQQKYALKNNACTFPKVEFHASGDVIWLERQAKEWLKL”, the “soluble on expression in E. coli” value is “soluble”.

With “MKIHPLSDVQAKQIGQGTSIWQYVVVLPGAVIGSDCNICSHCFIENAVVIGDRVTIKCGVQIWDGLRVEDDVFIGPNVTFTNDLFPRSKQHPKEFAKTVIQKGASIGANATILAGSTIGRNAMVGAGAVVTKSVPPNAIVVGNPARITGYVSTIPAQQKHSEIEVGENIGTVGQSAIPGVQFVRLPIIPDLRGSLSFAEFGQYLPFIPKRYFLVFDVQSREVRGEHAHKELHQFLVCVKGACSVMVDDGNCREEYILNTPGAALHIPPLVWGVQYKYSPDAVLMVLASDVYKPEDYIRDYDQFIALVKKLEHHHHHH”, the “soluble on expression in E. coli” value is “not soluble”.

On to “MKIHSYIFSLLACLVIALPGYSQVDRNETLIRSALHGLEYEIKAGFSIGGTAPLPLPVEIRSIDGYNPTLAISIGGEVTKWFAVQNKLGVIVGLRLENKAMTTEATVKNYNMEILGQGGERISGVWTGGVKTKVHTSGLTIPLMATYKLSNRWNIKAGPYFSYLLSREFSGHVYEGYLREGDPVGPKVEFTDGKIATYDFSDDLRHFQWGLQIGAGWRAFKHLNIYADLTWGLNDIFRNDFQTITFAMYPIYLNIGFGYAF”, for which the “soluble on expression in E. coli” value was “not soluble”.

Values taken from the DeepSol protein solubility set.
